Measured values from US20240294613A1 (BROAD INSTITUTE, published 2024).

B1: BG1-15 dimeric IgA (antibody, V domains shown)
VH: DVQLVESGGVVVQPGGSLRLACAASGFTFDDYAMHWVRQAPGKGLEWVSLITRDGGSTHYADSVKGRFTISRDNSKNSLYLQMNSLRLEDTAFYYCAKDGRRDGYNHALDNWGQGTLVTVSS
VL: DIQMTQSPSTLSASVGDRVTITCRASQSISSWLAWYQQKPGKAPKLLINRASSLESGVPSRFSGSGSGTEFTLTISSLQPDDFATYYCQQYSSYPTFGQGTKVEIKR
B2: BG10-8 dimeric IgA (antibody, V domains shown)
VH: QMELVESGGGLVKPGGSLRLSCASSGFSLGDYYMTWIRQAPGKGLEWVSYISRSDGKTFYADSVKGRFTLSTDDGKKSLYLQMNSLRAEDTAVYYCVRGEGGPHDAFDIWGQGTMVTVSS
VL: TSYVLTQPPSVSVAPGQTARISCGGNNIESKTVHWYQQKPGQAPILVVYDDNDRPSGIPERFSGSNSGNTATLSISRAEAGDEADYYCQVWDSSRDLRVFGGGTKLSVLG
B3: BG7-15 (antibody, V domains shown)
VH: QVQLVQSGAEVKKPGASVKVSCKASGYTFTSYAISWVRQAPGQGLEWMGWVSAYNGNTNYAQKLQGRVTMTTDTSTNTAYMELRSLRSDDTAIYYCAIPYSSVTFDCWGQGTLVTVSS
VL: EIVLTQSPGTLSLSPGERATLSCRASQSVSGTFLAWYQQKPGQAPRLLISGASSRATGIPDRFSGSGSGTDFTLTISRLEPEDFAVYYCQQYGSSRPTFGQGTKLEIKR
B4: BG7-18 (antibody, V domains shown)
VH: EVQLMESGGGLIQPGGSLRLSCAASGFIVSSNYMSWVRQAPGKGLEWVSVIYSGGGTDYADSVKGRFTISRDNSKNTLFLQMNSLRAEDTAVYYCARGAAMVKELFDYWGQGTQVTVSS
VL: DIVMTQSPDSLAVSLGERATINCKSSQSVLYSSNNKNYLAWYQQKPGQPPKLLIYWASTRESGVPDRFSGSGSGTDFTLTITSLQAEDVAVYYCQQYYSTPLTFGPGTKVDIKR

Tests used:
[1] = target: SARS-COV-2 full-length S (containing G at position 614) (SARS-COV-2, UniProt P0DTC2 14-1273); assay: cell-based or functional assay
[2] = target: SARS-COV-2 full-length S (containing G at position 614) (SARS-COV-2, UniProt P0DTC2 14-1273); assay: cell-based or functional assay; remark: listed apart in the source

| Binder | IC50, SARS-COV-2 pseudovirus neutralization [1] [µg/mL] | molar neutralization ratio (MNR) [1] | PV IC50 [2] [µg/mL] |
| --- | --- | --- | --- |
| B1 | 6.5 | – | – |
| B2 | 0.026 | 10.9 | – |
| B3 | – | – | 0.016 |
| B4 | – | – | 0.083 |
